Measured values from US20250242034A1, “PHOSPHORAMIDATE-BASED PSMA-TARGETED SMALL-MOLECULE DRUG CONJUGATES” (priority 2022, published 2025).
Read-outs that look alike come from different tables or passages of the source. Square brackets hold non-standard residues; d marks the D form. Peptide text beside a SMILES is read from it. * marks the point of attachment. Dolaproine = CO[C@@H]([C@@H]1CCCN1)[C@@H](C)C(=O)O; Dil = CC[C@H](C)[C@H](NC)[C@@H](CC(=O)O)OC; X1 = C[C@@H](N*)[C@@H](O)c1ccccc1; NMeV = CN[C@H](C(=O)O)C(C)C

Columns and labels:
[1] = test system: PSMA+ PC3-PIP tumor cells; assay type: in vivo, NCr nude mice; details: n=8; for time until animals reached end point criteria / end point tumor burden after first administration: IV once weekly for 6 weeks, SMDCs 0.8 mg/kg, MMAE 0.2 mg/kg
Method: Efficacy Study Design: NCr nude mice (age 6-8 weeks) injected with 1×10^6 PC3 PiP cells (1:1 in saline with Matrigel, 100 μL total volume) subcutaneously to right rear flank. Tumors were allowed to grow until approximate size of 100 mm^3 (roughly 2-3 weeks) before starting compound treatments. Treatment consisted of an injection of the appropriate compound to the lateral tail vein (100 μL bolus) once a week for the first 6 weeks of the study. Efficacy treatment groups were 8 animals each of: 1) saline, 2) MMAE alone, 0.2 mg/kg (molar equivalent to the MMAE conjugated to the small molecules), 3) CTT1700 (structure noted below), 0.8 mg/kg, 4) 1, 0.8 mg/kg, and 5) 2, 0.8 mg/kg. Tumor sizes were measured twice weekly for the duration of the study and mortality noted for survival curves. Animals were sacrificed if tumor condition reached IACUC standards for euthanasia (tumor burden of >1.5 cm in any axis, ulceration, >20% weight loss). Blood draws were taken via superficial temporal vein at 0, 4, 7 and 10 weeks and CBCs with 3-part differential measured.
(§1) To evaluate efficacy of SMDCs 1 and 2 in preclinical models of human PCa, we employed xenograft tumor models derived from PSMA+ PC3-PIP tumor cells implanted subcutaneously in the right rear flank of NCr nude mice (6-8 weeks old). […] Tumor sizes were measured twice weekly for the duration of the study and mortality noted for survival curves for 90 days after first administration. Animals were euthanized if tumor or mouse condition reached IACUC standards for euthanasia (tumor burden of >1.5 cm in any axis, ulceration, >20% mouse weight loss). Blood draws were taken via superficial temporal vein at 0, 4, 7 and 10 weeks, and complete blood count (CBC) analysis was performed with a 3-part differential measurement.

PSMA = PSMA (Homo sapiens, UniProt Q04609); test: PSMA binding (IC50 values for PSMA)
[2] = Compound residence study (PK): plasma and tissue levels of parent drug and MMAE by LC-MS/MS; assay type: in vivo, NCr nude mice; details: for Tumor AUC0-t, MMAE / Tumor Cmax, MMAE / Tumor AUC0-t, Parent / Tumor Cmax, Parent: PC3-PiP tumor; for Tumor AUC0-t, MMAE / Tumor Cmax, MMAE / Kidney AUC0-t, MMAE / Kidney Cmax, MMAE / Plasma % extrapolated, MMAE: analyte MMAE payload; for parent drug concentrations in tissues other than tumor: 0.8 mg/kg; for fraction of drug that is estimated to release MMAE: calculated from apparent MMAE formation clearance and reported MMAE clearance
Method: Compound Residence study design (PK Studies): Three volumes of PBS, pH 7.4, were added to tumor, kidney, and lacrimal tissues and 10 volumes of PBS, pH 7.4, were added to prostate tissue samples. Tumor, kidney, and prostate samples were homogenized with a homogenizer, and lacrimal tissues were sonicated with a sonicator. Twenty five microliters of plasma or tissue homogenate was added to a microcentrifuge tube followed by 10 μL of internal standard solution and 100 μL of 5 mM ammonium bicarbonate and acetonitrile (25:75 v,v). The sample was then vortexed at a high setting for 1 minute and centrifuged at 17,200×g for 10 minutes. The resultant supernatant was pipetted into an HPLC vial and 10-20 μL was injected into the LC-MS/MS system. […] [^2H8]-MMAE was used as the internal standard for MMAE. […] A SCIEX 6500+ Qtrap LC-MS/MS system consisting of an Agilent (Palo Alto, CA 94036) 1290 HPLC and Sciex 6500+ QTrap mass detector was used for quantitation of MMAE concentrations. The chromatography consisted of a gradient using of 5 mM ammonium bicarbonate and acetonitrile and the separation was achieved using a Phenomenex (Torrance, CA 90501) Kinetex column (2×50 mm, 2.6 μm). […] Standard curves were linear from 10-10,000 ng/mL for CTT1700, SMDCs 2 and 1 while the MMAE standard curves were linear from 0.01 to 10 ng/mL. A 1/y^2 weighted linear regression was used for all standard curves.
PK parameters were estimated using standard noncompartmental methods with Phoenix WinNonlin (Certara, Princeton, NJ). Plasma parent drugs were derived using the IV bolus approach, while all other data were derived using the extravascular approach.
as §1, with “measurement. For biodistribution studies, blood samples were obtained at 1 and 6 h post a single 0.8 mg/kg dose, followed by euthanasia at 24, 72 and 120 h; LC-MS/MS analysis was performed to determine concentrations of SMDC and MMAE in plasma, tumor, lacrimal gland, kidney, and prostate samples.” for “measurement.”

[3] = reported pharmacokinetics of MMAE dosed directly; assay type: in vivo; details: corresponds to 60 mL/h
[4] = cited from earlier work
[5] = 0.8 mg/kg IV once weekly for 6 weeks
[6] = IV 0.8 mg/kg, analyte parent drug
[7] = NCr nude, mouse, IV 0.8 mg/kg, plasma, analyte parent drug, read-out: Plasma Cmax, Parent
[8] = IV 0.8 mg/kg, kidney, analyte parent drug
[9] = IV 0.8 mg/kg, plasma, analyte parent drug

PSMA, sequence (Q04609 whole entry): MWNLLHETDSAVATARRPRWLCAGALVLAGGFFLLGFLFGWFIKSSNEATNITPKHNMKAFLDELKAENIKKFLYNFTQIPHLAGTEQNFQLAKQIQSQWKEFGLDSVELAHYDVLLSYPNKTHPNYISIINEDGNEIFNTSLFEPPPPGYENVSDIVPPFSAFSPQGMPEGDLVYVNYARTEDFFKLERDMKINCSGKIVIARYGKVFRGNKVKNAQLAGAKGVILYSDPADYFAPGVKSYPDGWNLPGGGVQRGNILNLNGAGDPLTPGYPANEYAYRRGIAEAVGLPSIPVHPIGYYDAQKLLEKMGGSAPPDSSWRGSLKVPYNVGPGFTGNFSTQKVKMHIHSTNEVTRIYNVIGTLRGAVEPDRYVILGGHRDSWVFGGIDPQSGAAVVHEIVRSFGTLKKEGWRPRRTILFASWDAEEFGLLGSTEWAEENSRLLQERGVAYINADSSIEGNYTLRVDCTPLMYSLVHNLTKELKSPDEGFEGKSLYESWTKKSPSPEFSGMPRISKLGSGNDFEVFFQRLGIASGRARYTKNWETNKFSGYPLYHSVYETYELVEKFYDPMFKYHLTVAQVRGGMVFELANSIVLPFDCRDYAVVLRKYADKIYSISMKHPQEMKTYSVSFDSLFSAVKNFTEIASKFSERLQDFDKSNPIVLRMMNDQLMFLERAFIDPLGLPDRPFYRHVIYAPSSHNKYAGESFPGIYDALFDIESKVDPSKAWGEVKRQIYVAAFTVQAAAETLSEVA

CC[C@H](C)[C@@H]([C@@H](CC(=O)N1CCC[C@H]1[C@H](OC)[C@@H](C)C(=O)N[C@H](C)[C@@H](O)c1ccccc1)OC)N(C)C(=O)[C@@H](NC(=O)[C@H](C(C)C)N(C)C(=O)OCc1ccc(NC(=O)[C@H](CCCNC(N)=O)NC(=O)[C@@H](NC(=O)c2ccc(Cn3nnc4c3-c3ccccc3CN(C(=O)CCC(=O)NCCOCCOCCOCCOCCC(=O)N[C@@H](CCC(=O)NCCCCCC(=O)N[C@@H](CCC(=O)N[C@@H](CCCOP(=O)(O)N[C@@H](CCC(=O)O)C(=O)O)C(=O)O)C(=O)O)C(=O)N[C@H](CCCCNC(=O)CCCc3ccc(I)cc3)C(=O)O)c3ccccc3-4)cc2)C(C)C)cc1)C(C)C [SMDC 1]
survival 90 days after initial dosing [1, 5]: Six of eight
therapeutic efficacy (in words) [1, 5]: dramatic efficacy compared to controls
tumor growth response [1, 5]: tumor regression was observed following initiation of administration up until 2 weeks after the last dose, with subsequent slow tumor growth
IC50 (PSMA; read-out: IC50 for PSMA): 24.1 ± 2.1 nM
Tumor AUC0-t, MMAE ([2]; IV 0.8 mg/kg): 1652 ng·days/g
Tumor Cmax, MMAE ([2]; IV 0.8 mg/kg): 509 ng/g
Tumor AUC0-t, Parent [2, 6]: 475 ng·days/g
Tumor Cmax, Parent [2, 6]: 122 ng/g
parent drug concentrations in tissues other than tumor [2, 6]: could not be quantified in any other tissue other than the tumor
parent drug concentrations in tissues other than tumor ([2]; IV 0.8 mg/kg, analyte parent drug, listed as VC): VC concentrations in all tissues other than tumor were below the LLOQ.
Kidney AUC0-t, MMAE ([2]; IV 0.8 mg/kg, kidney): 55.5 ng·days/g
Kidney Cmax, MMAE ([2]; IV 0.8 mg/kg, kidney): 30.6 ng/g
distribution volume of parent SMDC ([2]; IV 0.8 mg/kg, plasma): 0.106 L/kg
Plasma % extrapolated, MMAE ([2]; IV 0.8 mg/kg, plasma AUC): 2.9%
absolute tumor MMAE exposure compared to CTT1700 ([2]; IV 0.8 mg/kg, tumor, higher than control SMDC with non-degradable linker): approximately 6 fold
Cmax [2, 7]: < 10 ng/mL
fraction of drug that is estimated to release MMAE [2]: 38%

CC[C@H](C)[C@@H]([C@@H](CC(=O)N1CCC[C@H]1[C@H](OC)[C@@H](C)C(=O)N[C@H](C)[C@@H](O)c1ccccc1)OC)N(C)C(=O)[C@@H](NC(=O)[C@H](C(C)C)N(C)C(=O)OCc1ccc(OC(=O)N(C)CCN(C)P(=O)(O)OCC[C@H](NC(=O)c2ccc(Cn3nnc4c3-c3ccccc3CN(C(=O)CCC(=O)NCCOCCOCCOCCOCCC(=O)N[C@@H](CCC(=O)NCCCCCC(=O)N[C@@H](CCC(=O)N[C@@H](CCCOP(=O)(O)N[C@@H](CCC(=O)O)C(=O)O)C(=O)O)C(=O)O)C(=O)N[C@H](CCCCNC(=O)CCCc3ccc(I)cc3)C(=O)O)c3ccccc3-4)cc2)C(=O)O)cc1)C(C)C [SMDC 2]
IC50 (PSMA): 1.74 ± 0.14 nM

CC[C@H](C)[C@@H]([C@@H](CC(=O)N1CCC[C@H]1[C@H](OC)[C@@H](C)C(=O)N[C@H](C)[C@@H](O)c1ccccc1)OC)N(C)C(=O)[C@@H](NC(=O)[C@@H](NC)C(C)C)C(C)C [MMAE, Monomethyl auristatin E] (H-[NMeV]V[Dil][Dolaproine]-X1)
reported plasma clearance of MMAE, converted [3]: 1960 mL/h/kg
time until animals reached end point criteria / end point tumor burden after first administration [1]: ≤ 6 weeks
t1/2 reported for MMAE when dosed directly ([4]; MMAE dosed directly): 4.1 h
reported plasma clearance of MMAE ([4]; in vivo): 60 mL/h

CC[C@H](C)[C@@H]([C@@H](CC(=O)N1CCC[C@H]1[C@H](OC)[C@@H](C)C(=O)N[C@H](C)[C@@H](O)c1ccccc1)OC)N(C)C(=O)[C@@H](NC(=O)[C@H](C(C)C)N(C)P(=O)(O)OCC[C@H](NC(=O)c1ccc(Cn2nnc3c2-c2ccccc2CN(C(=O)CCC(=O)NCCOCCOCCOCCOCCC(=O)N[C@@H](CCC(=O)NCCCCCC(=O)N[C@@H](CCC(=O)N[C@@H](CCCOP(=O)(O)N[C@@H](CCC(=O)O)C(=O)O)C(=O)O)C(=O)O)C(=O)N[C@H](CCCCNC(=O)CCCc2ccc(I)cc2)C(=O)O)c2ccccc2-3)cc1)C(=O)O)C(C)C [CTT1700, reference compound]
therapeutic efficacy (in words) [1, 5]: moderate efficacy
time until animals reached end point criteria / end point tumor burden after first administration [1]: ≤ 12 weeks
Tumor AUC0-t, MMAE ([2]; IV 0.8 mg/kg): 262 ng·days/g
Tumor Cmax, MMAE ([2]; IV 0.8 mg/kg): 98.7 ng/g
Tumor AUC0-t, Parent [2, 6]: 483 ng·days/g
Tumor Cmax, Parent [2, 6]: 194 ng/g
Kidney AUC0-t, MMAE ([2]; IV 0.8 mg/kg, kidney): 4.00 ng·days/g
Kidney Cmax, MMAE ([2]; IV 0.8 mg/kg, kidney): 1.82 ng/g
Kidney AUC0-t, Parent [2, 8]: 685 ng·days/g
Kidney Cmax, Parent [2, 8]: 400 ng/g
Lacrimal AUC0-t, Parent ([2]; IV 0.8 mg/kg, lacrimal gland, analyte parent drug): 220 ng·days/g
Plasma % extrapolated, MMAE ([2]; IV 0.8 mg/kg, plasma AUC): 28%
Plasma % extrapolated, Parent ([2]; IV 0.8 mg/kg, plasma AUC, analyte parent drug): 1.9%
Plasma AUC0-inf, Parent [2, 9]: 6566 ng·days/mL
Plasma AUC0-t, Parent [2, 9]: 6442 ng·days/mL
Prostate AUC0-t, Parent ([2]; IV 0.8 mg/kg, prostate, analyte parent drug): 647 ng·days/g
Kp ([2]; NCr nude, mouse, kidney/plasma, IV 0.8 mg/kg, analyte parent drug, read-out: Kp (kidney/plasma), Parent): 0.106
Kp ([2]; NCr nude, mouse, lacrimal gland/plasma, IV 0.8 mg/kg, analyte parent drug, read-out: Kp (Lacrimal/plasma), Parent): 0.0342
Kp ([2]; NCr nude, mouse, prostate/plasma, IV 0.8 mg/kg, analyte parent drug, read-out: Kp (prostate/plasma), Parent): 0.1
Kp ([2]; NCr nude, mouse, tumor/plasma, IV 0.8 mg/kg, analyte parent drug, read-out: Kp (tumor/plasma), Parent): 0.075
Cmax ([2]; NCr nude, mouse, IV 0.8 mg/kg, lacrimal gland, analyte parent drug, read-out: Lacrimal Cmax, Parent): 71.9 ng/g
Tmax ([2]; NCr nude, mouse, IV 0.8 mg/kg, plasma, analyte parent drug): 1 h
clearance ([2]; NCr nude, mouse, IV 0.8 mg/kg, plasma, analyte parent drug, read-out: Plasma Cl, Parent (converted)): 5.08 mL/h/kg
Cmax [2, 7]: 7020 ng/mL
Vd ([2]; NCr nude, mouse, IV 0.8 mg/kg, plasma, analyte parent drug, read-out: Plasma Vss, Parent): 0.136 L/kg
half-life ([2]; NCr nude, mouse, IV 0.8 mg/kg, plasma, analyte parent drug, read-out: Plasma t1/2, Parent (converted)): 23 h
Cmax ([2]; NCr nude, mouse, IV 0.8 mg/kg, prostate, analyte parent drug, read-out: Prostate Cmax, Parent): 280 ng/g
fraction of drug that is estimated to release MMAE [2]: 1%
